Test: soluble on expression in E. coli; label from the status in PepcDB or PDB records

Soluble on expression in E. coli, not soluble:
MGHDLADIKKSFEASLPGYVEKKDPKSILPQPGKRNILITAALPYVNNVPHLGNIIGCVLSADVFARYCNLRGHQTFYVGGTDEYGTATETKALQEGCTPRELCDKYHAIHKGIYEWFGIDFSHFGRTTTDHQTEICQDMFLKLHKNGYTSSQSVDQLYCNQCEKFLADRFVTGTCPMCAYDDARGDQCDGCGKLINAVDLKDAKCHMCKATPEVKQSTHIFLSLDKLQQKTTEHLDRELAKEDNRWSSNAVGITKAWMKLGLDPRCITRDLKWGTAVPLDGFEKKVFYVWFDAPIGYLSITKCVLGDNWTKWWKNPENVELFNFVGKDNVAFHAVMFPCSQLGANDNYTVVNNLCATEYLNYEDTKFSKSRGTGIFGDAAQGTEIPADIWRFYLLYMRPESQDTAFSWDDFVLKVNSELLNNLGNFINRALSFVANSFGGVVPEMNLTNDDAEVLSEIHNECMQWDKQFDGVHLKDAVKTILNVSRLGNQYMQAQTPWVLMKKDEEGKKRAGTIIGVAANIAYHVSVLLYPIMPTISATIREQCGLPALPLFTPFPICYLKAGHKIGQPSPLFQKLDPAQIAEFKAKFGGSQDAQSSAPKTAEKPKQQKKQAPTKDKKGDKKMASTAAFVELEQGAKVISQLIAQNLKKFDQAKALFTRNQLQRLDGENKQLTIDVKTLQHQLIELETAAGIKQVPKPVVSCTPTPTSTPASGIITEAPKKEAPSTPAPSEPKKAKEQKKGKGGAAAAPVDDTIDVGRLDMRVGRIIKCEKHPDADALYVEQIDVGESAPRTVVSGLVRHVPLDQMQNRLVVVLCNLKPAKMRGVESRAMVMCASSPDKVEIMEVPADSKPGTPVVCPPYTHRPDEQLNPKKKIWETVAEDLKVSAEGFAEWKGQPLLIGSESKMTAPTLRGVHVK
KRRFELRGIVNNISVYDDFAHHPTAIAKTLAGVRAKLSQQESEQEQVGRIFAVLEPRSNTMRSGVHKESLPKSLIDADQVFIYQGEQVTWSVSDLIKQCKPACQVEDNVERLVESIAQQAQAGDIIVVMSNGGFADIHNKLLNRLANIPVPLEDA
MKTFIKGLVLSAVVASSQVYAEQTLNVYAWGGYLPEKSLKAFEQQEGVTINYSTFENNESMYTKLKLLKGTGYDVVFASAYFIEKMGREGLLAEIDHNQIPNMKDAMPTVLGLAHDPQNKFSLPYIWGITGLYYNSSTLPNGITKWADLWDKQYEQQVMLIDDIRDVFGMALKLNGFSINTKNEEEIKKAYESLVALKKNVLLYNSDAPHVPYVSGEATLGMQWNGNAYQGQVEMPELKFVMPEEGAVLWMDNFTIPSGSKNIPLAHKFINFMYQPENQAEIVQSLGYASATKGGRALLPAELRDNPTIFPSDEDMKKGEFINDVGPETLAIYEKYWQRLRNQ
MWRRYPQVEEKLGWYSRVMRGEEPPKYRIVRTFEVGFDSEDDIRRALTEELWREHERVAGEFRRLFRSLREGGSYEGDIKDARPSLMDVKVELVRRLASPCELCERRCRVERAKSRRGACRLAWEVYVHSAFLHLGEEAPLVPSGTIFYGGCNFTCVFCQNWDVSQWKARDAHIVTPRRLGEIQDRLAEAGARNINHVGGDPVPSLHVIVESMKYASHLKPQLWNSNMYMTLEALDILVDLIDIWLPDLKFGNDRCAMRLSAVPRYWEVTTRNILLAAEHGDMIIRHLVMPGHVECCTKPVLRWIAENLGDRVLVNIMDQYHPDNLVLRMPHKWPEIARRPSRREIEEAWRYAEQLGLDWEPVTK

Soluble on expression in E. coli, soluble:
MSLILRRVFIAIGCVLFSPLSQANSSLGEVNIELRGNVVDFTCAVVAGDSNKSVNLGTWPTKQLHAAGDATQPVAFSLKLEGCPPGSASITFSGTPAPGTALLALADTAMAQKLAIEIRDGDQRRLPLEQASKAVDIDNNGNATLKFYANYIALADGVQPGLANADATFLINYNEGGSHHHHHH
MSPGERFLDWLKRLQGQKAWTAARAAFRRSLAFPPGAYPRAMPYVEPFLAKGDWRQEEREAHYLVAALYALKDGDHQVGRTLARALWEKAQGSASVEKRFLALLEADRDQIAFRLRQAVALVEGGIDFARLLDDLLRWFSPERHVQARWAREYYGAGASEEEKKKEVEA

From the DeepSol protein solubility set
